Numbering of substitutions follows the chain as printed. In names and notes the source's numbering stands.
B1: H183/L072 VH A98L (antibody, name in Kabat numbering, V domains shown)
VH: QVQLVESGGGLVQPGRSLRLSCAASGFTFSNAWMHWVRQAPGKGLEWVAQIKDKGNAYAAYYAPSVKGRFTISRDDSKNSIYLQMNSLKTEDTAVYYCHYVHYLSASTVLPAFGVDAWGQGTTVTVSS
VL: DIVMTQSPLSLPVTPGEPASISCQASQELVHMNRNTYLHWYQQKPGQAPRLLIYKVSNRFPGVPDRFSGSGSGTDFTLKISRVEAEDVGVYYCAQGTSVPFTFGQGTKLEIK
B2: H183/L072 VH A100fP (antibody, name in Kabat numbering, V domains shown)
VH: B1 VH with L104A, A112P
VL: B1 VL
B3: H183/L072 VH F27L (antibody, name in Kabat numbering, V domains shown)
VH: B1 VH with F27L, L104A
VL: B1 VL
B4: H183/L072 VH F29T (antibody, name in Kabat numbering, V domains shown)
VH: B1 VH with F29T, L104A
VL: B1 VL
B5: H183/L072 VH D101M (antibody, name in Kabat numbering, V domains shown)
VH: B1 VH with L104A, D116M
VL: B1 VL
B6: H183/L072 VH F100gL (antibody, name in Kabat numbering, V domains shown)
VH: B1 VH with L104A, F113L
VL: B1 VL
B7: H183/L072 VH F29Y (antibody, name in Kabat numbering, V domains shown)
VH: B1 VH with F29Y, L104A
VL: B1 VL
B8: H183/L072 VH F27N (antibody, name in Kabat numbering, V domains shown)
VH: B1 VH with F27N, L104A
VL: B1 VL
B9: H183/L072 VH F27Y (antibody, name in Kabat numbering, V domains shown)
VH: B1 VH with F27Y, L104A
VL: B1 VL
B10: H183/L072 VH F27Q (antibody, name in Kabat numbering, V domains shown)
VH: B1 VH with F27Q, L104A
VL: B1 VL
B11: H183/L072 VH F29P (antibody, name in Kabat numbering, V domains shown)
VH: B1 VH with F29P, L104A
VL: B1 VL
B12: H183/L072 VH D101I (antibody, name in Kabat numbering, V domains shown)
VH: B1 VH with L104A, D116I
VL: B1 VL
B13: H183/L072 VH F100gA (antibody, name in Kabat numbering, V domains shown)
VH: B1 VH with L104A, F113A
VL: B1 VL
B14: H183/L072 VH A100fI (antibody, name in Kabat numbering, V domains shown)
VH: B1 VH with L104A, A112I
VL: B1 VL
B15: H183/L072 VH F29W (antibody, name in Kabat numbering, V domains shown)
VH: B1 VH with F29W, L104A
VL: B1 VL
B16: H183/L072 VH A100M (antibody, name in Kabat numbering, V domains shown)
VH: B1 VH with L104A, A106M
VL: B1 VL
B17: H183/L072 VH A98M (antibody, name in Kabat numbering, V domains shown)
VH: B1 VH with L104M
VL: B1 VL
B18: H183/L072 VH F27M (antibody, name in Kabat numbering, V domains shown)
VH: B1 VH with F27M, L104A
VL: B1 VL
B19: H183/L072 VH A102I (antibody, name in Kabat numbering, V domains shown)
VH: B1 VH with L104A, A117I
VL: B1 VL
B20: H183/L072 VH F27W (antibody, name in Kabat numbering, V domains shown)
VH: B1 VH with F27W, L104A
VL: B1 VL
B21: H183/L072 VH F27D (antibody, name in Kabat numbering, V domains shown)
VH: B1 VH with F27D, L104A
VL: B1 VL
B22: H183/L072 VH F27P (antibody, name in Kabat numbering, V domains shown)
VH: B1 VH with F27P, L104A
VL: B1 VL
B23: H183/L072 VH F27H (antibody, name in Kabat numbering, V domains shown)
VH: B1 VH with F27H, L104A
VL: B1 VL
B24: H183/L072 VH A102L (antibody, name in Kabat numbering, V domains shown)
VH: B1 VH with L104A, A117L
VL: B1 VL
B25: H183/L072 VH D101A (antibody, name in Kabat numbering, V domains shown)
VH: B1 VH with L104A, D116A
VL: B1 VL
B26: H183/L072 VH F27G (antibody, name in Kabat numbering, V domains shown)
VH: B1 VH with F27G, L104A
VL: B1 VL
B27: H183/L072 VH F27K (antibody, name in Kabat numbering, V domains shown)
VH: B1 VH with F27K, L104A
VL: B1 VL
B28: H183/L072 VH F27E (antibody, name in Kabat numbering, V domains shown)
VH: B1 VH with F27E, L104A
VL: B1 VL
B29: H183/L072 VH F29I (antibody, name in Kabat numbering, V domains shown)
VH: B1 VH with F29I, L104A
VL: B1 VL
B30: H183/L072 VH F100gM (antibody, name in Kabat numbering, V domains shown)
VH: B1 VH with L104A, F113M
VL: B1 VL
B31: H183/L072 VH A102M (antibody, name in Kabat numbering, V domains shown)
VH: B1 VH with L104A, A117M
VL: B1 VL
B32: H183/L072 VH F29L (antibody, name in Kabat numbering, V domains shown)
VH: B1 VH with F29L, L104A
VL: B1 VL
B33: H183/L072 VH A100fL (antibody, name in Kabat numbering, V domains shown)
VH: B1 VH with L104A, A112L
VL: B1 VL
B34: H183/L072 VH A100fM (antibody, name in Kabat numbering, V domains shown)
VH: B1 VH with L104A, A112M
VL: B1 VL
B35: H183/L072 VH F29M (antibody, name in Kabat numbering, V domains shown)
VH: B1 VH with F29M, L104A
VL: B1 VL
B36: H183/L072 VH A98P (antibody, name in Kabat numbering, V domains shown)
VH: B1 VH with L104P
VL: B1 VL
B37: H183/L072 VH F100gI (antibody, name in Kabat numbering, V domains shown)
VH: B1 VH with L104A, F113I
VL: B1 VL
B38: H183/L072 VH D52aY (antibody, name in Kabat numbering, V domains shown)
VH: B1 VH with D53Y, L104A
VL: B1 VL
B39: H183/L072 VH F29V (antibody, name in Kabat numbering, V domains shown)
VH: B1 VH with F29V, L104A
VL: B1 VL
B40: H183/L072 VH F27S (antibody, name in Kabat numbering, V domains shown)
VH: B1 VH with F27S, L104A
VL: B1 VL
B41: H183/L072 VH D101L (antibody, name in Kabat numbering, V domains shown)
VH: B1 VH with L104A, D116L
VL: B1 VL
B42: H183/L072 VH A100P (antibody, name in Kabat numbering, V domains shown)
VH: B1 VH with L104A, A106P
VL: B1 VL
B43: H183/L072 VH F27T (antibody, name in Kabat numbering, V domains shown)
VH: B1 VH with F27T, L104A
VL: B1 VL
B44: H183/L072 VH A100I (antibody, name in Kabat numbering, V domains shown)
VH: B1 VH with L104A, A106I
VL: B1 VL
B45: H183/L072 VH F27V (antibody, name in Kabat numbering, V domains shown)
VH: B1 VH with F27V, L104A
VL: B1 VL
B46: H183/L072 VH A100L (antibody, name in Kabat numbering, V domains shown)
VH: B1 VH with L104A, A106L
VL: B1 VL
B47: H183/L072 VH F27R (antibody, name in Kabat numbering, V domains shown)
VH: B1 VH with F27R, L104A
VL: B1 VL

Target: T1, Human CD137 ECD (human)
T1 construct: also called 4-1BB
Experiment: single mutant vs template dBBDu183H

T1 sequence (chain, as listed by the source limits assumed): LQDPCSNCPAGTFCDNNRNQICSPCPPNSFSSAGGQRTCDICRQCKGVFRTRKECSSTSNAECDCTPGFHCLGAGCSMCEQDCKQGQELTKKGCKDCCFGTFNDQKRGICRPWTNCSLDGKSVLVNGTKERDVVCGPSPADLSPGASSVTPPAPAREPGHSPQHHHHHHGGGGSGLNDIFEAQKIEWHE

Binder	fold change of affinity [fold]
B1	0
B2	0.3
B3	0.5
B4	0.1
B5	0
B6	1.2
B7	0.2
B8	0.3
B9	0.4
B10	0.2
B11	0.1
B12	0
B13	0.5
B14	0
B15	0.1
B16	0.7
B17	0
B18	0.9
B19	0
B20	0.3
B21	0.5
B22	0.3
B23	0.3
B24	0.9

Binder	fold change of affinity [fold]
B25	2
B26	0.4
B27	0.2
B28	0.2
B29	0.3
B30	0.6
B31	0
B32	0.3
B33	0
B34	0
B35	0.3
B36	0
B37	1
B38	0
B39	0.1
B40	0.3
B41	0
B42	0.3
B43	0.3
B44	0
B45	0.3
B46	0
B47	0.2

— patent US20210388087A1 (Chugai, published 2021)
